# According to patent US6355619B1, “Peptide tumor cell growth inhibitors” (Board of Regents, The University of Texas System, priority 1996, dated 2002):
# Where “and” joins values, the source holds several entries; their conditions need not be identical. Equal values may be shown once.
# What was measured:
# [1] = target: IL-8 receptors on human neutrophils (human); assay: inhibition of 125I-IL-8 binding to human neutrophils; peptide concentration not given
# [2] = target: IL-8 receptors on human neutrophils (human); assay: inhibition of 125I-IL-8 binding to human neutrophils, assuming purely competitive single site model
# [3] = target: MGSA/GROα receptors on Hs 294T melanoma cells; assay: inhibition of 1 nM 125I-MGSA/GROα binding to Hs 294T cells
# [4] = target: IL-8 receptors on human neutrophils (human); assay: cell-based or functional assay
# [5] = target: MGSA/GROα receptors on RPMI-7951 melanoma cells; assay: cell-based or functional assay
# [6] = target: MGSA/GROα receptors on Hs 294T melanoma cells; assay: cell-based or functional assay
# [7] = target: IL-8 receptors on human neutrophils (human); assay: inhibition of binding of 1 nM IL-8 to human neutrophils, 90 min on ice (FIG. 10)
# [8] = target: MGSA/GROα receptors on RPMI-7951 melanoma cells; assay: inhibition of 1 nM 125I-MGSA/GROα binding to RPMI-7951 cells
# [9] = target: IL-8 receptors on human neutrophils (human); assay: inhibition of IL-8 binding to human neutrophils
# [10] = target: IL-8 receptors on human neutrophils (human); assay: inhibition of 125I-IL-8 (10^-12 M) binding to human neutrophils, peptide 100 µM
# [11] = target: IL-8 receptors on human neutrophils (human); assay: inhibition of 125I-IL-8 binding to human neutrophils, peptide 10 µM
# [12] = target: IL-8 receptors on human neutrophils (human); assay: inhibition of 125I-IL-8 binding to human neutrophils, method of Example I; reference row of the heptamer table
# [13] = target: IL-8 receptors on human neutrophils (human); assay: inhibition of 1 nM 125I-IL-8 binding to human neutrophils, 90 min 4 °C, average of replicates
# [14] = target: IL-8 receptors on human neutrophils (human); assay: inhibition of 125I-IL-8 binding to human neutrophils
# [15] = target: IL-8 receptors on human neutrophils (human); assay: inhibition of 125I-IL-8 binding to human neutrophils, method of Example I; D-amino acid heptamer series
# [16] = test system: MGSA/GROα receptors on Hs 294T melanoma cells; assay: Binding of 125I-MGSA/GROα to Hs 294T melanoma cells; design: species or system human
# Experimental: (§1) FIG. 11A. The binding of ^125I-labeled MGSA/GROα to melanoma cell lines, Hs 294T and RPMI-7951. The melanoma cells, 1×10^5, were incubated with 1 nM ^125I-MGSA/GROα in the presence of various concentrations of unlabeled MGSA/GROα. Binding inhibition curve with Hs 294T (closed circles) and RPMI-7951 (open circles). The lines shown in the graph are the best fit curves calculated using the London II computer program.
# (§2) FIG. 13. The effect of Antileukinate on the binding of radiolabeled MGSA/GROα to the melanoma cell lines. The melanoma cells, Hs 294T (closed circles) and RPMI-7951 (open circles), were incubated with 1 nM ^125I-MGSA/GROα in the presence of different concentrations of Antileukinate. The lines shown in the graph are the best fit curves calculated using the London II computer program.
# (§3) Recombinant human MGSA/GROα and IL-8 were purchased form Pepro Tech Inc. (Rocky Hill, N.J.) and radioactively labeled using ^125I-labeled Bolton-Hunter reagent (DuPont-NEN, Wilmington, Del.) (Bolton and Hunter, 1973). The labeled proteins were isolated using Sephadex G-25 column (Column PD-10, Pharmacia) pre-equilibrated with PBS containing 0.1% gelatin and stored at −70° C. after the addition of 1% bovine serum albumin.
# (§4) Binding studies with melanoma cell lines were performed by the method of Horuk and colleagues (Horuk et al., 1993). Briefly, the cells (1×10^5 cells/well) in 24-well plates were washed two times with Hank's Balanced Salt Solution and incubated with ^125I-labeled MGSA/GROα or IL-8 in the buffer containing 1% bovine serum albumin at 4° C. for 3 hr. The incubation was terminated by vacuum aspiration of the supernatant. The cells were washed three times in binding buffer, solubilized by the addition of 200 μl of 1% SDS, and transferred to vials for counting. The non-specific binding was estimated by measuring the binding in the presence of 100-fold excess of non-labeled ligand. The binding parameters were calculated using the Lundon II computer program (Lundon Software Inc., Chagrin Falls, Ohio).
# [17] = test system: MGSA/GROα receptors on RPMI-7951 melanoma cells; assay: Binding of 125I-MGSA/GROα to RPMI-7951 melanoma cells; conditions: RPMI-7951
# Experimental: as §1, §2, §3, §4
# [18] = target: Receptor 1 (Table 3; class of IL-8 receptors on human neutrophils, two-site model, Lundon II) (human); assay: displacement of 1 nM 125I-IL-8 by unlabeled IL-8 on human neutrophils, Lundon II two-site model, +10 µM Ac-RRWWCR
# [19] = target: Receptor 2 (Table 3; class of IL-8 receptors on human neutrophils, two-site model, Lundon II) (human); assay: as above
# [20] = target: Receptor 1 (Table 3; class of IL-8 receptors on human neutrophils, two-site model, Lundon II) (human); assay: displacement of 1 nM 125I-IL-8 by unlabeled IL-8 on human neutrophils, Lundon II two-site model, IL-8 alone
# [21] = target: Receptor 2 (Table 3; class of IL-8 receptors on human neutrophils, two-site model, Lundon II) (human); assay: as above
# [22] = target: IL-8 receptors on human neutrophils (human); assay: saturation binding of 125I-IL-8 to human neutrophils, Lundon I, one-site model, no peptide
# [23] = target: Receptor 2 (Table 2; class of IL-8 receptors on human neutrophils, two-site model, Lundon I) (human); assay: saturation binding of 125I-IL-8 to human neutrophils, Lundon I, two-site model, in presence of 10 µM Ac-RRWWCR-NH2
# [24] = target: Receptor 1 (Table 2; class of IL-8 receptors on human neutrophils, two-site model, Lundon I) (human); assay: as above
# [25] = target: Receptor 2 (Table 2; class of IL-8 receptors on human neutrophils, two-site model, Lundon I) (human); assay: saturation binding of 125I-IL-8 to human neutrophils, Lundon I, two-site model, in presence of 40 µM Ac-RRWWCR-NH2
# [26] = target: Receptor 1 (Table 2; class of IL-8 receptors on human neutrophils, two-site model, Lundon I) (human); assay: as above
# [27] = target: Receptor 2 (Table 2; class of IL-8 receptors on human neutrophils, two-site model, Lundon I) (human); assay: saturation binding of 125I-IL-8 to human neutrophils, Lundon I, two-site model, in presence of 20 µM Ac-RRWWCR-NH2
# [28] = target: Receptor 1 (Table 2; class of IL-8 receptors on human neutrophils, two-site model, Lundon I) (human); assay: as above
# [29] = target: MGSA/GROα receptors on Hs 294T melanoma cells; assay: 1 nM 125I-MGSA/GROα displaced by unlabeled MGSA/GROα on Hs 294T cells, Lundon II
# [30] = target: MGSA/GROα receptors on RPMI-7951 melanoma cells; assay: 1 nM 125I-MGSA/GROα displaced by unlabeled MGSA/GROα on RPMI-7951 cells, Lundon II
# Sequence of Recombinant human IL-8 (72 amino acids) (P10145 28-99 limits assumed): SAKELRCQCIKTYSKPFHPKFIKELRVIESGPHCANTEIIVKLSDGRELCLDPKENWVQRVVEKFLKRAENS
# Sequence of Recombinant human MGSA/GROα (P09341 35-107): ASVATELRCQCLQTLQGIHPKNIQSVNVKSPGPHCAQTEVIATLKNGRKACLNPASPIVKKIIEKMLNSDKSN
substance,measurement,setting,value
Ac-KELRCQ-NH2 (peptide),% Binding Inhibition,[1],-0.4%
Ac-RRWWCR-NH2 (peptide),Ki,[2],10000 nM
same,EC50,[3],1000 nM
same,chemotaxis of neutrophils stimulated with 10 nM of IL-8,[4],50 µM
same,enzyme release from neutrophils stimulated by IL-8,[4],0.8 µM
same,β-glucuronidase release stimulated by 100 nM of IL-8,[4],2 µM
same,growth of RPMI-7951 melanoma cells (cell number after 72 hr),[5],31 µM
same,growth of melanoma cells in culture,[5],100 µM
same,growth of Hs 294T cells (cell number after 72 hr),[6],18 µM and 10 µM
same,growth of melanoma cells in culture,[6],100 µM
same,EC50,[7],25000 nM
same,EC50,[8],1000 nM
same,% Binding Inhibition,[1],98.6%
same,fold effectiveness against the non-acetylated peptide,[9],2 fold
same,% INHIB.,[10],112%
same,% inhibition,[11],20%
same,% INHIB.,[12],112%
same,EC50,[13],13700 nM
Ac-rrwwcrc-NH2 (peptide),fold potency against Ac-rrwwcr-NH2 (SEQ ID NO:1),[14],4 fold
same,% of IL-8 binding prevented,[11],80%
same,% INHIB.,[15],108%
"MGSA/GROα: Recombinant human MGSA/GROα (Pepro Tech Inc.), 73 amino acid α-chemokine",Kd,[16],~6 nM
same,maximal binding (Bmax) of MGSA/GROα,[16],11 fmole/10^5 cells
same,Kd,[17],~3 nM
same,maximal binding (Bmax) of MGSA/GROα,[17],15 fmole/10^5 cells
Recombinant human IL-8 (72 amino acids) (from UniProt P10145 28-99) (ligand),Bmax (fmole/10^6 cells),[18],11.2
same,Kd,[18],1.23 nM
same,Bmax (fmole/10^6 cells),[19],75.6
same,Kd,[19],0.76 nM
same,Bmax (fmole/10^6 cells),[20],38.8
same,Kd,[20],0.03 nM
same,Bmax (fmole/10^6 cells),[21],68.8
same,Kd,[21],0.67 nM
same,Bmax (fmole/10^6 cells),[22],174
same,Kd,[22],1.3 nM
same,Bmax (fmole/10^6 cells),[23],90.9
same,Bmax (fmole/10^6 cells),[24],91.9
same,Kd,[24],68 nM
same,Bmax (fmole/10^6 cells),[25],44.2
same,Kd,[25],1.3 nM
same,Bmax (fmole/10^6 cells),[26],82
same,Kd,[26],13 nM
same,Bmax (fmole/10^6 cells),[27],76.2
same,Kd,[27],0.8 nM
same,Bmax (fmole/10^6 cells),[28],90.9
same,Kd,[28],42.8 nM
Recombinant human MGSA/GROα (from UniProt P09341 35-107) (ligand),reversal of the inhibition of Hs 294T growth by 50 µM Antileukinate,[6],50 nM
same,Kd,[29],6 nM
same,maximal binding (Bmax) (fmole/10^5 cells),[29],11
same,Kd,[30],3 nM
same,maximal binding (Bmax) (fmole/10^5 cells),[30],15
rrwwcrs (peptide),% INHIB.,[15],70.4%
rrwwcrt (peptide),% INHIB.,[15],56.3%
rrwwcrv (peptide),% INHIB.,[15],89.2%
rrwwcrw (peptide),% INHIB.,[15],106%
rrwwcry (peptide),% INHIB.,[15],85.4%
